Changes are numbered by the printed parent chain. Blank lines part the entries; values can stand above or below the binder they belong to.
What was measured:
[1] = target: T1, human-derived transmembrane HB-EGF protein (wild type HB-EGF) (human, UniProt Q99075 20-208); assay: flow cytometry on HB-EGF-expressing cells (summary of the selection)
T1 construct: also called human HB-EGF protein; cell surface HB-EGF

mutant HB-EGF F115A = mutant HB-EGF F115A (human, UniProt Q99075 20-208); assay: flow cytometry on 293T cells transiently expressing the mutant, antibody 5 µg/mL
Sequence of mutant HB-EGF F115A (Q99075 20-208 F115A): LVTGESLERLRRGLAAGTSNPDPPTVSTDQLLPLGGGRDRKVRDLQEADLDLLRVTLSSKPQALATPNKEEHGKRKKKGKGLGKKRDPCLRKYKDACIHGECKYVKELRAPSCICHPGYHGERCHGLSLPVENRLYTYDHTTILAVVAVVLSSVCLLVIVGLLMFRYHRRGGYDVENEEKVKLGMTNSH
Description: (§1) First, prepared were cells expressing amino acid point mutant HB-EGF to be subjected to the flow cytometry. To be more specific, genes encoding mutant HB-EGF shown in Table 1 were prepared by site-directed mutagenesis using the HB-EGF-pQCxmhIPG as a template. The obtained mutant HB-EGF genes were each inserted into an animal cell expression vector pQCxmhIPG to prepare a vector encoding each mutant HB-EGF. […] Thus, cells expressing amino acid point mutant HB-EGF were prepared.
(§2) Next, each of the anti-HB-EGF antibodies (5 μg/mL) and a secondary antibody (manufactured by Beckman Coulter, Inc., catalog number: IM0855, this antibody was diluted to 1/200 for use)) were allowed to react with the cells expressing the wild type HB-EGF or each mutant HB-EGF, and the mean fluorescence intensity was analyzed by the flow cytometry. […] Then, based on the obtained mean fluorescence intensity (antibody reactivity), the binding strength (relative value) of each anti-HB-EGF antibody to each mutant HB-EGF was calculated according to the following formula (Formula *).

mutant HB-EGF I117A = mutant HB-EGF I117A (human, UniProt Q99075 20-208); assay: as above
Sequence of mutant HB-EGF I117A (Q99075 20-208 I117A): as the sequence (Q99075 20-208 F115A) above, with A96F, I98A counted along it
Description: as §1, §2

[2] = target: T1, human-derived transmembrane HB-EGF …; assay: flow cytometry with 293T culture supernatant as primary antibody (the FIG. 11 legend says ELISA)
Description: The reactivity of the 35-1 chimeric antibody or the 35-1 humanized antibody with HB-EGF was evaluated by the flow cytometry.
The antibody concentration in the culture supernatant was calculated according to a sandwich ELISA method. […] After the plate was washed with 0.05% Tween 20-PBS, an HRP-labeled goat anti-mouse IgG (manufactured by MBL Co., Ltd., code number: 330) having been diluted to 1/10000 was added as a detection antibody in an amount of 50 μL/well and left to stand at room temperature for 1 hour. After the plate was washed with 0.05% Tween 20-PBS, a color developing solution was added thereto in an amount of 50 μL/well and left to stand at room temperature for 20 minutes to develop a color. The color development was terminated by adding 1 M phosphoric acid in an amount of 50 μL/well. Then, the absorbance at 450 nm was measured with a plate reader. Regarding the antibody concentration in the culture supernatant, a standard curve was created based on measured values obtained by serially diluting the antibody solution of a known concentration, and the antibody concentration was calculated from the measured values of the culture supernatant.

T1 sequence (Q99075 20-208): as the sequence (Q99075 20-208 F115A) above, with A96F counted along it

B1: 35-1 antibody (antibody, mouse IgG1, V domains shown)
VH: EVQLQQSGPELVKPRASVKISCKASGYSFSGYYMHWVKQSPEKSLEWIGEINPSTGGITYNQKFKAKATLTVDRSSSTAYMQLKSLTSEDSAVYYCTRITWAFAYWGQGTLVTVSA
VL: QIVLTQSPAIMSASPGEKVTMTCSASSSVTYMYWYQQKPGSSPRLLIYDTSNLASGVPVRFSGSGSGTSYSLTISRMEAEDAATYYCQQWSSYPPTFGGGTKLEIK
notes: Variable genes were amplified with mouse IgG1 CH1 and kappa constant region primers
binding result [1]: binds
binding result (mutant HB-EGF F115A): binds
binding result (mutant HB-EGF I117A): binds

B2: 292 antibody (antibody, mouse IgG1, V domains shown)
VH: EVQLQQSGPELVKPGASVKISCKASGYSFTGYYMHWVKQSPEKSLEWIGEINPSTGGTTYNQKFKAKATLTLDKSSSTAYMQLKSLTSEDSAVYYCAKSPYWDGAYWGQGTLVTVSA
VL: B1 VL with V29I, T30S, K38R, Y70H, P95S
notes: as for B1
binding result [1]: binds
binding result (mutant HB-EGF F115A): binds
binding result (mutant HB-EGF I117A): binds

Next, values leading:

binding result [2]: binds
B3: 35-1 chimeric antibody (antibody, V domains shown)
VH: B1 VH
VL: B1 VL
notes: Variable regions of the 35-1 antibody in Lonza human IgG1 antibody producing vectors (human IgG1 constant region); also called chimerized 35-1 antibody

binding result [2]: binds
B4: 35-1 humanized antibody (antibody, V domains shown)
VH: QVQLVQSGAEVVKPGSSVKVSCKASGYSFSGYYMHWVKQAPGQGLEWIGEINPSTGGITYNQKFKAKATLTVDRSTSTAYMELKSLTSEDTAVYYCTRITWAFAYWGQGTTVTVSS
VL: QIVLTQSPTTMAASPGEKITITCSASSSVTYMYWYQQRPGFSPKLLIYDTSNLASGVPVRFSGSGSGTSYSLTIGTMEAEDVATYYCQQWSSYPPTFGGGTKLEIK
notes: CDR-grafted variable regions in a Lonza human IgG1 vector (human IgG1 constant region); also called humanized 35-1 antibody

Source: US20160083464A1 (MEDICAL AND BIOLOGICAL LABORATORIES, published 2016)
